Assay results reported in US20260098096A1 (MONASH UNIVERSITY, published 2026).

T1: human CCR3 (human, UniProt P51677 1-355)
T1 construct: whole, on cells
T1 sequence (looked up): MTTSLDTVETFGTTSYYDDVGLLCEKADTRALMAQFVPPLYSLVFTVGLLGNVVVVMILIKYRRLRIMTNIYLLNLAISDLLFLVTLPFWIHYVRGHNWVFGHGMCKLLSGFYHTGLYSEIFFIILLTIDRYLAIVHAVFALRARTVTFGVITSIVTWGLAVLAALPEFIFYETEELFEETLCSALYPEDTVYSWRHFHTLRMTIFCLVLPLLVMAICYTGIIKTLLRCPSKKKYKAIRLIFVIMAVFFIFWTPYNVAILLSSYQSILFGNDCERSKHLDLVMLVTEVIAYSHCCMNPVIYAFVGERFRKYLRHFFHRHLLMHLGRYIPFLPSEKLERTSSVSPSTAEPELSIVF

T2: human CCR6 (human, UniProt P51684 1-374)
T2 construct: whole, on cells
T2 sequence (looked up): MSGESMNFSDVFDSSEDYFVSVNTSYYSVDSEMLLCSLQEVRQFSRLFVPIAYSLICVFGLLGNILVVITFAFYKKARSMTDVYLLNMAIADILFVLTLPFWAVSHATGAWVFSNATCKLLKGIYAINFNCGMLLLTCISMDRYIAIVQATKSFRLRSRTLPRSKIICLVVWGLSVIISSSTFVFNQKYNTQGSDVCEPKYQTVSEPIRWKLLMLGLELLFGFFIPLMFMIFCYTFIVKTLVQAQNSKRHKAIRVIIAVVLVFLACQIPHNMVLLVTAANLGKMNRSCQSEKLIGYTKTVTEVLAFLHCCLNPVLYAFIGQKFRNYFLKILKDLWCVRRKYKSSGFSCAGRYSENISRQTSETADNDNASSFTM

T3: human CCR7 (human, UniProt P32248 25-378)
T3 construct: whole, on cells
T3 sequence (looked up): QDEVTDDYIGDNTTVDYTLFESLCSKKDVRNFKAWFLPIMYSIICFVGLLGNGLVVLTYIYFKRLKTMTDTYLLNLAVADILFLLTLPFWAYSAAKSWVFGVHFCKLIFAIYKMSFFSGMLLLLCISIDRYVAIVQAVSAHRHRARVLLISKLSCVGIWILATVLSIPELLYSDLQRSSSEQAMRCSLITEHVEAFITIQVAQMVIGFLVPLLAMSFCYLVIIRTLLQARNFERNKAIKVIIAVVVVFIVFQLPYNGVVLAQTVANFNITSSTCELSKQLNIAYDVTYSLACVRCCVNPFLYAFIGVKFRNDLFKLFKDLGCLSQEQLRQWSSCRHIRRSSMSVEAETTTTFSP

T4: human CCR10 (human, UniProt P46092 1-362)
T4 construct: whole, on cells
T4 sequence (looked up): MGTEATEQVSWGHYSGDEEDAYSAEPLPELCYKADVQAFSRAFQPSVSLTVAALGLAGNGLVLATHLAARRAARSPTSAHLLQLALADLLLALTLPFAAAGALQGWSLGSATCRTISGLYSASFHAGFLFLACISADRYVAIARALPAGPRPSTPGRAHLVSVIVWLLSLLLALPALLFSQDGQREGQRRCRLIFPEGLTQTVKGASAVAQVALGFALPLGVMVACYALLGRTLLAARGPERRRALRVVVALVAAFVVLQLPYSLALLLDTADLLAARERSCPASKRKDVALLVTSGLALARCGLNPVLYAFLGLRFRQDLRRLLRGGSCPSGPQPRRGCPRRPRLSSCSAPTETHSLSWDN

T5: Mouse CCR8 (mouse, UniProt P56484 1-353)
T5 construct: Expressed on transfected CHO-Flpn or L1.2 cells; also called mCCR8
T5 sequence: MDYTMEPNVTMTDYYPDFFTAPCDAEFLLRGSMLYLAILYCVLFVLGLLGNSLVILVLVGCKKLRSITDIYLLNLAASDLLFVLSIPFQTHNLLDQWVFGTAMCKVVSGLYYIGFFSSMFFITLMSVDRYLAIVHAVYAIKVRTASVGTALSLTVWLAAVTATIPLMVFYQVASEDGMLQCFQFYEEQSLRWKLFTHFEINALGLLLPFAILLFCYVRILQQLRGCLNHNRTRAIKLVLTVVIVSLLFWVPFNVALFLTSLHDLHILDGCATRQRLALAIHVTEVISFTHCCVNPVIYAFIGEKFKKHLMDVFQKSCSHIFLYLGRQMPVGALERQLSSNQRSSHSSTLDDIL

B1: Chimeric 2H8 (antibody, human IgG1, kappa, V domains shown)
VH: EVQLQQSGPELVKPGASVKMSCKASGYTFTDYNMHWVKQSHGKSLEWIGYVNPNNGGTSYNQKFKGKATLTVNKSSSTAYMELRSLTSEDSAVYYCARWVLRRNFAYWGQGTLVTVSA
VL: DIVMTQSHKFMSTSVGDRVSITCKASQDVNTAVAWYQQKPGQSPKLLIYWASTRHTGVPDRFTGSGSGTDYTLTISSVQAEDLALYYCQQHYRNPYTFGGGTKLEIKR
notes: also called Chimeric 2H8-B4; chimeric 2H8 B4 (parental)
B2: 2H8 anti-m/hCCR8 antibody (mouse hybridoma clone, isotype IgG2b) (antibody, V domains shown)
VH: B1 VH
VL: DIVMTQSHKFMSTSVGDRVSITCKASQDVNTAVAWYQQKPGQSPKLLIYWASTRHTGVPDRFTGSGSGTDYTLTISSVQAEDLALYYCQQHYRNPYTFGGGTKLEIK
notes: Murine antibody from a mouse immunised with mouse CCR8 L1.2 cells; the mouse constant regions are not; also called 2H8-B4
B3: Humanised 2H8 (antibody, V domains shown)
VH: QVQLVQSGAEVKKPGASVKVSCKASGYTFTDYNMHWVRQAPGQGLEWIGYVNPNNGGTSYNQKFKGKATLTVDKSISTAYMELSRLRSDDTAVYYCARWVLRRNFAYWGQGTLVTVSS
VL: DIQMTQSPSSLSASVGDRVTITCKASQDVNTAVAWYQQKPGKAPKLLIYWASTRHTGVPSRFSGSGSGTDFTLTISSLQPEDFATYYCQQHYRNPYTFGQGTKLEIK
notes: also called Humanized 2H8-B4; h2H8

Columns and labels:
Human CCR8 = target: T6, Human CCR8 (human, UniProt P51685 1-355); test: flow cytometry on hCCR8-L1.2 transfected cells
T6 construct: Expressed on transfected CHO-Flpn or L1.2 cells; also called hCCR8; C-C chemokine receptor type 8

human CCR3 = target: T1, human CCR3; test: flow cytometry on transfected L1.2 cells
human CCR6 = target: T2, human CCR6; test: flow cytometry on transfected L1.2 cells
human CCR7 = target: T3, human CCR7; test: flow cytometry on transfected L1.2 cells
human CCR10 = target: T4, human CCR10; test: flow cytometry on transfected L1.2 cells
hCCR8_172-173 YQ-AA = target: T7, hCCR8_172-173 YQ-AA (human, UniProt P51685 1-355); test: epitope mapping on transfected cells
T7 construct: also called Mut 172-173

hCCR8_174-175 VA-AG = target: T8, hCCR8_174-175 VA-AG (human, UniProt P51685 1-355); test: epitope mapping on transfected cells
T8 construct: also called Mut 174-175

Mouse CCR8 = target: T5, Mouse CCR8; test: flow cytometry on transfected CHO-Flpn cells
Cynomolgus CCR8 = target: T9, Cynomolgus CCR8 (cynomolgus monkey, UniProt O97665 1-356 (rhesus entry)); test: flow cytometry on HEK293T cells transfected with cyno CCR8
T9 construct: also called cyno CCR8; cynomolgus monkey CCR8
From the text: FIG. 2. Reactivity of 2H8 antibody and other anti-hCCR8 antibodies towards Cyno CCR8. HEK293T cells were transfected with plasmid coding for cynomolgus monkey CCR8 and stained with various anti-hCCR8 antibodies (blue) or isotype control (red).

T6 sequence (P51685 whole entry): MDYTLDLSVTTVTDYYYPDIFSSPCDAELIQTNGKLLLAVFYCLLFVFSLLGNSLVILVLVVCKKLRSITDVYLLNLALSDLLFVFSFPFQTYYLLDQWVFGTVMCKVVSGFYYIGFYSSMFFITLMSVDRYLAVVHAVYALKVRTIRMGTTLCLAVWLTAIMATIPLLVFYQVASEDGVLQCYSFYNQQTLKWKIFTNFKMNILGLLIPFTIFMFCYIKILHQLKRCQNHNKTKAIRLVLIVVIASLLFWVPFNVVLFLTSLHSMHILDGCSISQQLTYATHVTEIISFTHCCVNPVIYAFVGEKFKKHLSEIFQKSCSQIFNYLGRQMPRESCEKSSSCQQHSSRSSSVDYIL
T8 sequence (P51685 whole entry V174A/A175G): as the sequence (P51685 whole entry) above, with V174A, A175G counted along it
T9 sequence (O97665 other isoform, or with tags, fused parts or gaps): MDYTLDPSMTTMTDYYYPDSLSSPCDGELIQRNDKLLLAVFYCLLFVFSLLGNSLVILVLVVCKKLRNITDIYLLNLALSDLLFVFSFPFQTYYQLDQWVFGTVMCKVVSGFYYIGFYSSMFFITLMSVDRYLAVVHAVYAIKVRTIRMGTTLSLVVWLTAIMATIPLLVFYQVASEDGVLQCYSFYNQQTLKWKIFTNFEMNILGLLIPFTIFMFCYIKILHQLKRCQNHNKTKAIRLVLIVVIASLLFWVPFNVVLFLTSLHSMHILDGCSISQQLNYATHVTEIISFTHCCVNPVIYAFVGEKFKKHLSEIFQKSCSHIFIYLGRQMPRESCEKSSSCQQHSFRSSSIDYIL
T7 sequence (P51685 whole entry Y172A/Q173A): as the sequence (P51685 whole entry) above, with Y172A, Q173A counted along it

Binder	EC50 (Human CCR8) [nM]	binding result (human CCR3)	binding result (human CCR6)	binding result (human CCR7)	binding result (human CCR10)	binding result (hCCR8_172-173 YQ-AA)	binding result (hCCR8_174-175 VA-AG)	binding result (Mouse CCR8)	binding result (Cynomolgus CCR8)
B1	2.1								
B2		no binding	no binding	no binding	no binding	binds	binds	binds	binds
B3	2.1								
